Source: US20200377590A1 (Hoffmann-La Roche, published 2020)
Substitutions are numbered along the chain they refer to. Like-named read-outs stand apart in the source and are kept apart here.

T1: CD81 (UniProt P60033 1-236, limits assumed)
T1 construct: whole, on cells; also called CD81 receptor
T1 sequence (looked up): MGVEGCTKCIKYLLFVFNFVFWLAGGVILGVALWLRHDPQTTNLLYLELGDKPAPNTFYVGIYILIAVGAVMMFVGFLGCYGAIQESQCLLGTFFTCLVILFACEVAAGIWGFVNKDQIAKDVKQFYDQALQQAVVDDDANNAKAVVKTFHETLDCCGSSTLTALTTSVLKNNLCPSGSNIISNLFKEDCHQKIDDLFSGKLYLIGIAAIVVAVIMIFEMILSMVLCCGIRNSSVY

B1: CD81K04 HC JA_GG-14-hVH_1_69-GA / LC GG-04-hVK_4_1 (antibody, V domains shown)
VH: QVQLVQSGAEVKKPGSSVKVSCKASGYTFSSSWMNWVRQAPGQGLEWMGRIYSGDGDAIYNGKFKGKATITADESTSTAYMELSSLRSEDTAVYYCAREGKTGDLLLRSWGQGTLVTVSS
VL: DIVMTQSPDSLAVSLGERATINCKSSKSVSTSIYSYLAWYQQKPGQPPKLLIYYASTRESGVPDRFSGSGSGTDFTLTISSLQAEDVAVYYCQHSREFPYTFGQGTKLEIK
notes: human constant region
B2: CD81K04 HC JA_GG-14-hVH_1_69-GA / LC JA_GG-07-hVK_7_3 (antibody, V domains shown)
VH: B1 VH
VL: DIVLTQSPASLAVSPGQRATITCRASKSVSTSIYSYMHWYQQKPGQPPKLLIKYASNKDTGVPARFSGSGSGTDFTLTINPVEANDAANYYCLHSREFPYTFGQGTKLEIK
notes: human constant region
B3: CD81K13 HC 04-hVH_1_69 / LC 5b-hVK_1_39 (antibody, V domains shown)
VH: EVQLVESGGGLVQPGRSLRLSCTASGFNFKDSYLHWVRQAPGQGLEWMGRIDTGNGNVKFDPKFQGRVTITADESTSTAYMELSSLRSEDTAVYYCVPYGYGFHSWGQGTLVTVSS
VL: DIQMTQSPSSLSASVGDRVTITCRASENIYRTLAWYQQKPGKAPKLLIYGATTLADGVPSRFSGSGSGTDFTLTISSLQPEDFATYYCQHFWGTPWTFGQGTKVEIK
notes: human constant region
B4: CD81K13 HC 04-hVH_1_69 / LC 5b-hVK_1_39-GA (antibody, V domains shown)
VH: B3 VH
VL: B3 VL
notes: human constant region
B5: CD81K13 HC 04-hVH_1_69 / LC 06-hVK_1_39 (antibody, V domains shown)
VH: B3 VH
VL: B3 VL with G50A, D56S, A84G
notes: human constant region

Assays:
Assay in all cases: cell ELISA
CD81 [1] = target: T1, CD81
CD81 [2] = target: T1, CD81; remark: listed apart in the source
Description: (§1) For the binding cell ELISA assay, HuH7-Rluc-H3 (positive cell line expressing CD81) and HuH7-Rluc-L1 (negative control cell line) were propagated in F-12 DMEM medium with 10% FCS at 37° C. and 5% CO₂. On day 1, the cells were trypsinized at approximately 90% confluence and resuspended at 4×10⁵ cells/mL. […] On day 2, the antibody samples to be tested were prepared in a separate polypropylene round bottom plate with a twofold desired concentration with a final volume of 120 μl. All of the assay samples were diluted in cell culture medium. […] After fixation, each well was washed 3 times with 200 μL PBS/0.05% Tween. The secondary incubation step for detection of bound anti-CD81 antibodies was performed for 2 h at room temperature on a reciprocal shaker. […] Each well was washed three times with 200 μL PBS/0.05% Tween to remove unbound antibodies. […] The absorbance was read using the ELISA Tecan reader at 450 nm with 620 nm reference wavelength.

CD81 [3] = target: T1, CD81; remark: listed apart in the source
Description: as §1

Binder	ELISA data (CD81 [1])	ELISA data (CD81 [2])	ELISA data (CD81 [3])
B1	0.107	0.12	–
B2	0.107	0.125	–
B3	–	–	0.428
B4	–	–	0.403
B5	–	–	0.386
